Data published in patent US6440409.

What was measured:
[1] = target: T1, translation elongation factor 2 (EF-2), toxin-sensitive form with diphthamide
T1 chain: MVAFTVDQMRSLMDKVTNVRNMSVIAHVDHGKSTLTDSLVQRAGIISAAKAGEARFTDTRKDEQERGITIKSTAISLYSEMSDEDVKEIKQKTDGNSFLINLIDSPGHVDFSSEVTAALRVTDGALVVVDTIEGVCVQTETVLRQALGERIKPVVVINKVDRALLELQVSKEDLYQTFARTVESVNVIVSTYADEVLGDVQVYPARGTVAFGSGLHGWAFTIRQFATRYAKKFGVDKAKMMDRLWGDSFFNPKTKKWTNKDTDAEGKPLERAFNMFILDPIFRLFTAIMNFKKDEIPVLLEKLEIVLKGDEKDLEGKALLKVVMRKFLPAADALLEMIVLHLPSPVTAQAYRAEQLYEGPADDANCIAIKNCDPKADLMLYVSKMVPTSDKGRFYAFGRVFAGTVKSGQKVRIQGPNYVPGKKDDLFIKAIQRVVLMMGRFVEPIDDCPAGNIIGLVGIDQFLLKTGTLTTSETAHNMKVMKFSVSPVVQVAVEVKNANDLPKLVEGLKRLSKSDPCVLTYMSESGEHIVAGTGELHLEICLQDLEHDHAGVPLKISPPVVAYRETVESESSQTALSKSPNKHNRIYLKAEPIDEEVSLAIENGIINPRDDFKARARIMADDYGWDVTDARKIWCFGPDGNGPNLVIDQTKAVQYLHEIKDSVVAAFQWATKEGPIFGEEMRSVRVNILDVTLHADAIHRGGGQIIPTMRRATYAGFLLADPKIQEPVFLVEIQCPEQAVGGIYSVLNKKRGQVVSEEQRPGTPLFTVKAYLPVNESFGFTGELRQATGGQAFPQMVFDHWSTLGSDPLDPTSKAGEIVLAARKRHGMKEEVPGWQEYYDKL

[2] = target: T2, translation elongation factor 2 (EF-2), toxin-resistant form without diphthamide (dph1::TRP1 strains)
T2 chain: T1 chain

B1: diphtheria toxin F2 fragment (protein)
chain: GADDVVDSSKSFVMENFSSYHGTKPGYVDSIQKGIQKPKSGTQGNYDDDWKGFYSTDNKYDAAGYSVDNENPLSGKAGGVVKVTYPGLTKVLALKVDNAETIKKELGLSLTEPLMEQVGTEEFIKRFGDGASRVVLSLPFAEGSSSVEYINNWEQAKALSVELEINFETRGKRGQDAMYEYMAQACAGNRVRR
[1]
  viable diploids after mating of the killer strain (TMY401 with pTM147) with the target strain (TMY407 with pRS426), selected on SC-Ura, His: very few viable diploids appear at the intersection of the killer and target strains
[2]
  viable diploids after mating of the killer strain (TMY401 with pTM147) with the diphtheria toxin-resistant strain TMY403 (dph1::TRP1), selected on SC-Ura, His: healthy diploids are readily obtained
